Where a chain is given by its changes, count along the chain named. In names and notes the source's numbering stands.
B1: Ab28 (10x-L8N-c1) (antibody, V domains shown)
VH: QFQLVQSGAEVKKPGSSVKVSCRASGGSFTSHAISWVRQAPGQGFEWMGRIIPMFGIANYAPKFQGRVTMSADKFKDIVYMEVNSLTSEDTALYYCARSQPMTSVTTLWFDPWGQGTLVTVSS
VL: EIVLTQSPGTLSLSPGERATLSCRASEPVGGSYLAWYQQKPGQAPRLLIHGASSRATGIPDRFSGSGSGTDFVLTISRLEPEDFAVYHCQQYASSPYTFGQGTKLEIK
B2: Ab22 (C9.1) (antibody, V domains shown)
VH: QVQLVQSGAEVKKPGSSVKVSCKASGGTFSSYGISWVRQAPGQGLEWMGRIIPSLSITNSAEKFQGRVTITADKSTSTAYMELSRLRSEDTALYYCARDFHPRYEFCDSTSCYDEWEPRMDVWGQGTTVTVSS
VL: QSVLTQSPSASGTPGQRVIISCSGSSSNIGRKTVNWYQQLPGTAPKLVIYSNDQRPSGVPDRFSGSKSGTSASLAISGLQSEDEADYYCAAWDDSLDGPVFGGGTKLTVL
B3: Ab25 (H10.2) (antibody, V domains shown)
VH: B2 VH with G26R, S31N, G33A, I70M, A79V, L93V, F106Y, D108S
VL: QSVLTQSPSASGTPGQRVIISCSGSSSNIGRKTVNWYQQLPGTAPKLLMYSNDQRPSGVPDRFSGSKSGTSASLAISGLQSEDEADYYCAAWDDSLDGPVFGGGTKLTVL
B4: Ab6 (K23) (antibody, V domains shown)
VH: EVQLVESGGGLVQPGGSLRLSCSASGFTFNNYVMHWVRQAPGKGLEYVSAINSNGGSTYYAGSVKGRFTISRDNSNNTLYLQMSSLRAEDTAVYYCIKDAGYYSSLGVDSWGQGTLVTVSS
VL: EIVLTQSPATLSLSPGERATLSCRASQSVGSYLAWFQQKPGQAPRLLIYDASYRATGIPARFSGSGSGTDFTLTISSLEPEDVGIYYCQQRSNWPQTFGGGTKVDIK
B5: Ab27 (E12.2) (antibody, V domains shown)
VH: EVQLVESGGGLVQPGGSLRLSCGASGITVSSNYMNWVRQAPGKGLEWVSTLYAGGSTFYADSVKGRFIISRDNSKNTLYLQMNSLRADDTAVYYCARDLVDYGMDVWGQGTTVTVSS
VL: DIQLTQSPSSLSASVGDRVTITCRASQGISSYLAWYQQKPGKAPKLLIYAASTLQSGVPSRFSGSGSGTDFTLTISSLQPEDFATYYCQQLNSYSPFTFGPGTKVDIK
B6: Ab23 (B10.1) (antibody, V domains shown)
VH: QVQLVQSGAEVKKPGSAVKVSCKASGGTFSSYPITWVRQAPGQGLEWVGRAIPILGITSTAQKFQGRVTIIADKSTSTAYMELSRLRSEDTAVYYCARDFHPRYQDCDSTSCYDQWEPRMDVWGQGTTVTVSS
VL: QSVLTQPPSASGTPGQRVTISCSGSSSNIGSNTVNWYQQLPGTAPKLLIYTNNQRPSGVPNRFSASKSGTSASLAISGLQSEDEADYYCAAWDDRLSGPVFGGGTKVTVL
B7: Ab11 (D4) (antibody, V domains shown)
VH: QVQLQESGPRLVKPSGTLSLSCAVSGGPFSNTNWWSWIRQTPGKGLEWIGEINDSGNTVYNPALKSRVTMSVDKSKKQFSLNLHSLTAADTAVYFCARVWGHFDYWGQGVRVTVSS
VL: DIQMTQSPSSLYASVADRVTITCRASQGISNSLAWYQQQPGKAPQLLLYAASTLESGVPSRFSGSGSGTDFTLTISSLQPEDFATYYCQQYYSLRTFGGGTKVEIK
B8: Ab35 (10x-L8N-c20) (antibody, V domains shown)
VH: QVQLQESGPGLVKPSETLSLTCTVSGDSIYSYSWTWIRQPPGKGLEWIGQLYYNGSTSYNASLKSRVSISLDTSKNQFSLKLRFVTAADTAMYYCARVEYYSNYFDPWGQGTQVTVSS
VL: EIVLTQSPATLSLSPGERATLSCRASQSVGSYLAWYQQKPGQAPRLLIYDASNRVPGIPARFSGSGSGTDFTLTISSLPPEDFAVYYCQQRSDWPPTFGGGTKVEIR
B9: Ab14 (F9) (antibody, V domains shown)
VH: EVQLVESGGGLVQPGGSLRLSCATSGFTFDDFAMHWVRQGPGKGLEWVSGISWNSGKIAYTDSVKGRFSISRDNAKNSLYLQMNSLRPEDTALYYCTKDHAPSAILGDILTGFDPWGQGTLVT
VL: DIQMTQSPVSLSASVGDRVTITCRASQSISVYLNWYQQKPGKAPKLLMYAASILQSGVPSRFSGSGSATDFTLTITSLQPEDFATYFCQQSFTMPPTFGQGTNLEIK
B10: Ab19 (F5.1) (antibody, V domains shown)
VH: EVQLVESGGGLVKPGGSLRLSCAASGFIFSRNGMHWVRQAPGKGLEWVSSIDNDGTYMYYADSVRGRFTVSRDNAKNSLFLQLNSLRAEDTAVYYCARDRFGYYDALTDSYNAGYFDSWGQGTLVTVSS
VL: DIQMTQSPSSLSASVGDSVTITCRASQDIYNYLAWFQQKPGKAPKSLIYTASKLESGVPSKFSGSGSGTDFTLTISSLQPEDFATYYCQQYHSSPITFGQGTRVEIK
B11: Ab32 (10x-L8N-c12) (antibody, V domains shown)
VH: EVQLVESGGGLVQPGGSLRVTCVASGFAVRTNFMTWVRQAPGKGLQCVSVIYGDGSTYYADSVKGRFSISRDNSKNTVYLQMNSLSAEDTAVYYCAREVSHAFDLWGPGTMVTVSS
VL: DIQLTQSPSTLSASLGDRVTITCRASQSISGWLAWYQQKPGRAPQLLIYKASLLETGVPSRFSGSGSGTVFTLTISSLQPDDFATYYCQQYDTYSPYTFGQGTKLEIK
B12: Ab20 (C6.1) (antibody, V domains shown)
VH: EVQLVESGGGLVKPGGSLRLSCAASGFAFSTNGMNWVRQVPGKGLEWVSSISSTSEYTYYTESVKGRFTISRDNAKNSLFLQMNSLRAEDTAVYYCVRDRFGYYDVLASSYNVGFFQSWGQGALVTVSS
VL: DIQMTQSPSSLSASVGDGVTITCRASQDISNNLAWFQQKPGKAPKCLIYSASSLQSGVPLKFRGSGSGTDFTLSITSLDPEDFATYYCQQYISYPITFGQGTRLDIK
B13: Ab21 (E6.1) (antibody, V domains shown)
VH: QVQLVQSGAEVKKPGSSVEVSCKASGGTFSSYAISWVRQAPGQGLEWMGRIIPSLGITNSAENFQGRVTITADKSTSTVYMELSSLRSEDTAVYYCARDFHPLYQSCSSTSCYDEWEPRMDVWGQGTTVTVSS
VL: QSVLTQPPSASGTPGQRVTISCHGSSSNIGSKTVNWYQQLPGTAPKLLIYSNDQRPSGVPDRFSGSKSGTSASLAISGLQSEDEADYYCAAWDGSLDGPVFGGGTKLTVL
B14: Ab9 (C68) (antibody, V domains shown)
VH: QVQLVQSGAEVKKPGASVKVSCKISGYTLTDFSIHWVRQAPGKGLEWMAGFDPEHRETIFAQKFQGRVAMTEATSTDTAYMELSSLRSDDTAVYYCATTGDFDSWRGYYLWGQGTLVTVSA
VL: DIQLTQSPSSVSASVGDSVTITCRASQGISRWLAWYQQKPGKAPRLLIYSASTLQSGVPSRFSGSGSGTDFTLTISSLQPDDFATYYCQHTNNFPFSFGPGTKVDIK
B15: Ab13 (D10) (antibody, V domains shown)
VH: EVQLVESGGGLVQPGRSLRLSCAASGFTFDEYAMHWVRQAPGKGLEWVSGISFNSGSVGYAGAAKGRFTISRDNAKKSLYLEMNSLRDEDTAFYYCAKDRGEHWLVRLFDSWGQGTLVTVSS
VL: DIQMTQSPSTLSASVGDRVTITCRPSQSIDRWLAWYQQKPGKAPTLLISAASSLETGVPSRFSGSGSGTEFTLTISSLQPDDFATYYCQQYNGYSMFGPGTKVEIK
B16: Ab39 (10x-L8N-c30) (antibody, V domains shown)
VH: QVQLVQSGAEVKKPGSSVKISCKASGDTSSSYTINWVRQAPGQGLEWMGRIIPMFNRANYARKFQGRVTMTADRSTDTAYMEVSSLTSDDTAVYYCARTWIEPHNWFDPWGQGTLVTVSS
VL: EIVLRQSPGTLSLSPGERATLSCRASQSVSGNHLAWYQRKPGQAPRLLIYAASSRATGIPDRFSGSGSGTDFTLTINRLEPEDFAVFYCQQYGTSPPTFGGGTKVEIK
B17: Ab12 (H5) (antibody, V domains shown)
VH: EVQLLESGGGLVQPGGSLRLSCAASGFTFSGSDMSWVRQAPGKGLEWVSVIGGSGTYAYYSDSVKGRFTISRDNSKNMLFLQMNSLRAEDTAIYYCAKETGFLWFGELLDSWGQGALVTVSS
VL: DIQMTQSPSSLSASVGDRVTITCRASEAISNSLAWYQQRPGKAPRLLLYAAATLESGVPPRFSGSGSGTDFTLTISTLQPEDFATYYCQQYYSPPPRTFGQGTKVEIK
B18: Ab7 (G1) (antibody, V domains shown)
VH: EVQLVESGGGLVKPGGSLRLSCAASGFTVSTYIINWVRQAPGKGLEWVSSITSESDYMFDADSVRGRFTISRDNAKNLVYLQMNSLRAEDTAVYYCARDQGAYSGYDLSPGGDAFDVWGQGTMVTVSS
VL: DIQMTQSPSTLSASVGDRVTITCRASQSISTWLAWYQQKPGKAPKLLIYKASNLESGVPSRFSGSGSGTEFTLTISRLQPDDSATYCCQHYNSYPYTFGQGTKVEIK
B19: Ab8 (B9) (antibody, V domains shown)
VH: EVQLVQSRAEVKKPGESLKISCKGSGYSFTTYWIGWVRQMPGKGLEWMGIIRPGDSDTRYSPSFQGQVTISADKSITTAYLQWSSLKASDTAMYYCAMTYSGDQYDFWGQGTVVTVSS
VL: B18 VL with S30H, K39T, N53L, R77S, D81G, S83F, C87Y, P95S, Y96H
B20: Ab3 (C2.2) (antibody, V domains shown)
VH: QVQLVQSGAEVKKPGSSVRVSCEASGDTFSRYAISWVRQAPGQGLEWMGRIIPMFGMANSAQKFQARVTISADKSTSTAYMEVSSLRSEDTAVYYCATDTFYPNDGVHRMEYWGQGALVIVSS
VL: DIQMTQSPSSLSASVGDRVTITCRASQTISNYLNWYQQKPGKAPNLLIYGTSILQSGVPSRFSGSGSGTDFTLTISSLQPEDFATYYCQQSHSAPRTFGPGTKVDIK
B21: Ab4 (G7.2) (antibody, V domains shown)
VH: QVQLVQSGAEVKKPGSSVKVSCEASGGTFSTYAISWVRQAPGQGLEWMGRIIPIFGIANYAQKFQGRVTITADKSTSTAYMEVSSLRSEDTAVYYCATTFYDHSSTYRTHSMDVWGQGTTVTVSS
VL: DIQMTQSPSSLSASVGDRVTITCRASQSISNYLNWYQQRPGKAPKLLIYAASGLQSGVPSRFSGSGSGTNFTLTISTLHPEDFATYYCQQTHSTPRAFGGGTKVEIK
B22: Ab26 (G4.2) (antibody, V domains shown)
VH: QVQLVQSGAEVKKPGSSVKVSCKASGGTFSSHTVSWVRQAPGQGLEWMGRIIPPFGIVNYAQKFQGRVTMTADESTSTAYMELSSLRSEDTAVYYCARSNVVVVTEAGWFDPWGQGTLVTVSS
VL: DIQMTQSPSSVSASVGDRVSISCRASQDISSSLAWYQQKPGQAPKVLIYDASTLQSGVPSRFSGSGSGTDFTLTISNLRPDDFATYFCQQAHSFPFTFGPGTKVDIR

Target: BQ.1.1 spike protein (SARS-CoV-2 variant BQ.1.1, UniProt P0DTC2 14-1273)
Assay: cell-based or functional assay

B1 and B2 cannot be ordered by “IC50 (pVNT)” value: at most 550 ng/ml for the first, at most 550 ng/ml for the second.

B3 and B4 cannot be ordered by “IC50 (pVNT)” value: at most 550 ng/ml for the first, at most 550 ng/ml for the second.

B5 and B6 cannot be ordered by “IC50 (pVNT)” value: at most 550 ng/ml for the first, at most 550 ng/ml for the second.

B7 and B8 cannot be ordered by “IC50 (pVNT)” value: at most 550 ng/ml for the first, at most 550 ng/ml for the second.

B9 and B10 cannot be ordered by “IC50 (pVNT)” value: at most 550 ng/ml for the first, at most 550 ng/ml for the second.

B11 and B12 cannot be ordered by “IC50 (pVNT)” value: at most 550 ng/ml for the first, at most 550 ng/ml for the second.

B13 and B14 cannot be ordered by “IC50 (pVNT)” value: at most 550 ng/ml for the first, at most 550 ng/ml for the second.

B15 and B16 cannot be ordered by “IC50 (pVNT)” value: at most 550 ng/ml for the first, at most 550 ng/ml for the second.

B17 and B18 cannot be ordered by “IC50 (pVNT)” value: at most 550 ng/ml for the first, at most 550 ng/ml for the second.

B19 and B20 cannot be ordered by “IC50 (pVNT)” value: at most 550 ng/ml for the first, at most 300 ng/ml for the second.

B21 and B22 cannot be ordered by “IC50 (pVNT)” value: at most 300 ng/ml for the first, at most 550 ng/ml for the second.

Point of comparison: B20, “concentration required to effectively neutralize (pVNT)” value 271 ng/ml. Against it:
- B21 — lower, 48.4 ng/ml

Point of comparison: B21, “times less than the concentration of E7” value ~11 times. Against it:
- B20 — lower, ~2 times

From patent publication US20260209318A1 (NATIONAL UNIVERSITY OF SINGAPORE, published 2026)
